Experimental data reported in patent publication US20190218292A1 (LABORATOIRE FRAN AIS DU FRACTIONNEMENT ET DES BIOT …, published 2019).

What was measured:
[1] = molecular target: T1, cynomolgus monkey PD1 antigen (cynomolgus monkey, UniProt B0LAJ3 25-170); experiment: ELISA, coated cynomolgus PD1
T1 construct: also called cynomolgus PD1

murine PD1 antigen = molecular target: T2, murine PD1 antigen (murine, UniProt Q02242 25-167, limits assumed); experiment: ELISA, coated murine PD1
T2 sequence (looked up): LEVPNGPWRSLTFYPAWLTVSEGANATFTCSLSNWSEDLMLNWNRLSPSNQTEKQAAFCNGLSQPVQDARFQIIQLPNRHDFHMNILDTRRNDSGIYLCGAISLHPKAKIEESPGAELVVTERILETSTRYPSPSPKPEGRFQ

T1 sequence (B0LAJ3 entry or part of it limits assumed, form in doubt): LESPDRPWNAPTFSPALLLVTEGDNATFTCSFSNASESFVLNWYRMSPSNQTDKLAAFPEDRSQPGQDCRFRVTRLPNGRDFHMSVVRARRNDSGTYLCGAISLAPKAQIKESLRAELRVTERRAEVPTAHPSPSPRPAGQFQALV

OD 450 nm at 0.2 µg/ml [1]: 2.39 OD 450 nm
OD 450 nm at 0.2 µg/ml (murine PD1 antigen): 0.305 OD 450 nm
B1: IgG1_WT nivolumab (antibody, V domains shown)
VH: QVQLVESGGGVVQPGRSLRLDCKASGITFSNSGMHWVRQAPGKGLEWVAVIWYDGSKRYYADSVKGRFTISRDNSKNTLFLQMNSLRAEDTAVYYCATNDDYWGQGTLVTVSS
VL: EIVLTQSPATLSLSPGERATLSCRASQSVSSYLAWYQQKPGQAPRLLIYDASNRATGIPARFSGSGSGTDFTLTISSLEPEDFAVYYCQQSSNWPRTFGQGTKVEIK
